In patent publication US8173131B2, “Compositions and methods for modulating RSV infection and immunity” (PerkinElmer Health Sciences, Inc., priority 2000, dated 2012):
Like-named read-outs stand apart in the source and are kept apart here.

Key:
293 cells = assay: G glycoprotein and Fkn binding to untransfected 293 control cells by flow cytometry; set-up: species or system human; details: for percent positive staining of 293 cells: 10 nM ligand, representative experiment, FIG. 1
Procedure: Purified G glycoprotein was examined for binding to 293-CX3CR1 cells^33. A pcDNA 3.1 plasmid containing the CX3CR1 gene and a neomycin resistance gene was used to stably transfect human embryonic kidney (HEK) cells. Neomycin resistance was used for selection and maintenance of plasmid transfection of human embryonic kidney cells.
All binding studies were done on ice and either G glycoprotein or human Fkn (R&D Diagnostics, Minneapolis, Minn.) were diluted between 1 nM-100 nM in PBS (GIBCO) containing 1% bovine serum albumin (Sigma) and incubated with the 293-CX3CR1 cells or 293 control cells for 30 min at 4° C. […] For inhibition studies, 100 pM-1 μM human Fkn or G glycoprotein was preincubated with the cells for 30 min at 4° C. Without washing, 100 pM of either Fkn or G glycoprotein was added and incubated for 30 min at 4° C. The cells were washed, blocked with FcγRIII blocking antibody (HB197) for 30 min on ice, washed and stained as appropriate with either an anti-G glycoprotein monoclonal antibody cocktail (132-5B, 132-5G, 130-2G, 232-IF) or a biotinylated anti-G glycoprotein monoclonal antibody cocktail (130-2G, 131-2G) or anti-Fkn monoclonal antibody (51637.11; R&D Diagnostics). Concentrations of 1 μg of anti-G glycoprotein monoclonal antibody (131-2G)^34, rabbit anti-CX3CR1 sera^33, and anti-CX3CR1 monoclonal antibody containing 10 μg/ml heparin were used in all experiments. […] Staining was detected with absorbed FITC-goat anti-mouse (H & L chain) monoclonal antibody (PharMingen, San Diego, Calif.) or streptavidin-PE (PharMingen) using flow cytometry (FACScan, Becton-Dickinson, Mountain View, Calif.). A 76 amino acid ^125I-Fkn polypeptide comprising the […] (NEN, Boston, Mass.) was used in radioligand studies^33. As a control, the void volume following purified G glycoprotein passaged over an anti-G glycoprotein antibody (130-2G) affinity column was examined by flow cytometry for binding to either 293 or 293-CX3CR1 cells.
The receptor for Fkn, CX3CR1, was previously identified and characterized using anti-CX3CR1 rabbit antiserum and CX3CR1-transfected human embryonic kidney cells (293-CX3CR1 cells)^33.

[1] = biological target: T1, Fkn binding to 293-CX3CR1 cells (Homo sapiens, UniProt P49238)
T1 construct: host or cells: HEK 293 cells stably transfected with CX3CR1
T1 sequence (P49238 whole entry): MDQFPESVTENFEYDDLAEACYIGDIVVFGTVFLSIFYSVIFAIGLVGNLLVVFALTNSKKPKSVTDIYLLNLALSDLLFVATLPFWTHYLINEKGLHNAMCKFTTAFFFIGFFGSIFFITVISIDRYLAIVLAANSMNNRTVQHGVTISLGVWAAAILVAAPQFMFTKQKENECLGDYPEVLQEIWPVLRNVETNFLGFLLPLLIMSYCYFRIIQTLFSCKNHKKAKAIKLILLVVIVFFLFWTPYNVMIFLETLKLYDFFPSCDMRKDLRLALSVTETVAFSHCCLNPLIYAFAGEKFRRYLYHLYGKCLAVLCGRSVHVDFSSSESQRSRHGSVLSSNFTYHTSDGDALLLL

Molecule | percent positive staining of 293 cells (293 cells) [%] | Range of Inhibition (%) of Fkn binding ([1]; heparin 5 μg/ml + peptide 1 μM) | Range of Inhibition (%) of Fkn binding ([1]; heparin 5 μg/ml + G glycoprotein 10 nM) | binding to 293 cells (293 cells; wheat germ lectin column fraction (G, F glycoprotein) or purified recombinant polyhistidine-tagged G glycoprotein) [%]
Fkn: CX3C chemokine fractalkine (R&D), ligand of CX3CR1 [reference compound] | 8 |  |  | 
TCWAICKRIPNK [RT33] |  | 70-80% |  | 
G glycoprotein: purified G glycoprotein isolated from RSV/A2-infected Vero cells (protein) MSKNKDQRTAKTLERTWDTLNHLLFISSCLYKLNLKSVAQITLSILAMIISTSLIIAAIIFIASANHKVTPTTAIIQDATSQIKNTTPTYLTQNPQLGISPSNPSEITSQITTILASTTPGVKSTLQSTTVKTKNTTTTQTQPSKPTTKQRQNKPPSKPNNDFHFEVFNFVPCSICSNNPTCWAICKRIPNKKPGKKTTTKPTKKPTLKTTKKDPKPQTTKSKEVPTTKPTEEPTINTTKTNIITTLLTSNTTGNPELTSQMETFHSTSSEGNPSPSQVSTTSEYPSQPSSPPNTPRQ | 16 |  | 80-85% | 18
